The values below are quoted from earlier work in patent publication US20130079279A1, “PHARMACEUTICAL COMPOSITION COMPRISING AVE0010 AND INSULIN GLARGINE” (SANOFI-AVENTIS DEUTSCHLAND GMBH, priority 2010, published 2013).

This data set concerns anti-lixisenatide antibodies. The note with it: previous study ACT6011; end of a two week period after repeated injections.

In the case of “desPro^36Exendin-4(1-39)-Lys6-NH2 [lixisenatide]”, the Anti-lixisenatide antibodies entry is recorded as “not detected”.
